Test results taken from the supplement of paper PMC11865577.

Columns and labels:
Experiment in all cases: pull-down binding Z-score (relative to library population); higher = stronger binding
Conditions in all cases: RNA library: Library-2
TO-N3 (biotin conjugate) = test system: TO-N3 (biotin conjugate)
How it was run: (§1)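 The RNA library, end-labelled with Cy5 or Cy3, was heat-folded in phosphate/NaCl/KCl buffer, and 1 μg was incubated at 25 °C for 60 min with streptavidin beads carrying 100 pmol of biotin-conjugated small molecule. Hot SDS released the bound RNA, which was then hybridised to a DNA barcode microarray for 20 h at 55.5 °C. For scoring binding, signal from beads alone was subtracted, replicate barcoded probes were averaged after discarding the highest and lowest, and each value was turned into a Z-score from the library mean and standard deviation.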

[1] = test system: TO-3-N3 (biotin conjugate)
How it was run: as §1

[2] = test system: TO-N3-2 (biotin conjugate)
How it was run: as §1

[3] = test system: TO-3-N3-2 (biotin conjugate)
How it was run: as §1

Sequence	pull-down binding Z-score (TO-N3 (biotin conjugate))	pull-down binding Z-score [1]	pull-down binding Z-score [2]	pull-down binding Z-score [3]
GUACCAAAGGUGC [IAV_invivo_PB1_2_Motif_35+IAV_invivo_PB1_2_Motif_35]	-0.215	-0.101	-0.382	-0.26
AAGGGAGGGGCGGGUCGGGAA [G4_2A2_NRAS]	7.02	8.72	5.24	11.1
CAUGAAGUGUGAUCAUUGUGGUGAAACUUCAUG	-0.605	-0.496	-0.279	-0.154
GGAGGAGGAGGAGGAGGA [G4_r(GGA)6]	2.99	4.17	-1.68	7.36
GCCCUGGAAUGAUGAUGGGC [IAV_invivo_PB1_2_Motif_20+IAV_invivo_PB1_2_Motif_20]	0.138	0.0132	0.65	0.012
UCACACUAAAAAGUGGA	-1.1	-0.691	-1.15	-0.477
AGUCAGACAAAUCGCUCCAGGGCAAACUGGAAAGAUUGCUGAUU	0.0567	0.0712	0.136	0.0858
CGGUUGCUUGGUCAGCAAGUGCAUGUCAUGAUGGCAUGGGCUGGCUAACAAUCG [IAV_invivo_NA_6_Motif_7+IAV_invivo_NA_6_Motif_7]	-0.939	-0.929	-0.222	-0.69
GACAUCACUUUCUUAAAGAAAGAUGCUCCAUAUAUAGUGGGUGAUGUU [DMSMaPseq_invitro_SARS-CoV-2_Multi_15_ComplexLevel_1]	-0.173	-0.0756	-0.466	-0.0858
GGAGAGUGUUCAGACAUUCUUU [SHAPE_invitro_SARS-CoV-2_Motif_44]	-0.508	-0.535	-0.602	-0.361
CGGGACCAACGAGGAAAUGUACUACUGUCUCCCG [IAV_invivo_PB2_1_Motif_23+IAV_invivo_PB2_1_Motif_23]	-0.196	-0.431	0.354	0.118
UAAAAUGAAUUAUCAAGUUA [DMSMaPseq_invitro_SARS-CoV-2_Motif_325]	-1.04	-0.703	-1.2	-0.451
CUUCUGCUGCUCUUCAACCUGAAGAAGAGCAAGAAGAAG	-0.368	-0.349	-0.79	-0.22
UCCACUAGCAUCUUUAUUGGAGAUGUGCCACAGCACACAGAUUGGUGGAAUUAGGAUGGUAGACAUCCUUAGGCAGAACCCAACAGAAGAGCAAGCCGUGGA	-0.545	-0.764	0.0456	-0.269
GAAGGCUAUUUGAACUCUACUAAUGUCACUAUUGCAACCUACUGUACUGGUUCUAUACCUUGUAGUGUUUGUCUUAGUGGUUUAGAUUCUUU	-0.505	-0.541	-0.467	-0.458
GUGCCAGCACAAAAUGCUAUAAGCAC [IAV_invivo_PB1_2_Motif_3+IAV_invivo_PB1_2_Motif_3]	-1.07	-0.871	-0.727	-0.201
ACGUGAGUCUUGUAAAACCUUCUUUUUACGUUUACUCUCGU	0.206	0.0863	-0.213	0.0619
GCAGCAAUAUGC [IAV_invivo_PA_3_Motif_2+IAV_invivo_PA_3_Motif_2]	0.548	0.588	-0.111	-0.292
AGUCAUAACAAGAGAAGUGGGUUUUGUCGUGCCUGGUUUGCCUGGCACGAUAUUACGCACAACUAAUGGUGACU [DMSMaPseq_invitro_SARS-CoV-2_Motif_162]	-0.62	-0.612	-0.252	-0.178
ACAUUACACCAUGU [SHAPE_invivo_SARS-CoV-2_Motif_439]	-1.07	-0.779	-0.865	-0.6
GGCAGCGAGCC [IAV_invivo_NP_5_Motif_25+IAV_invivo_NP_5_Motif_25]	-1.01	-0.756	-0.713	-0.633
UGGUUGGUUGGUUGGUUGGUUGGUUGGUUGGU [G4_r(UGGU)8]	7.53	8.68	5.6	9.27
CCCUAAGACUAAAAAUGUUACAAAAGAAAAUGACUCUAAAGAGGGUUUUUUCACUUACAUUUGUGGG [DMSMaPseq_invitro_SARS-CoV-2_Motif_371]	-1.03	-0.845	-0.589	-0.271

Sequence	pull-down binding Z-score (TO-N3 (biotin conjugate))	pull-down binding Z-score [1]	pull-down binding Z-score [2]	pull-down binding Z-score [3]
GUGUUAUAACAC	-0.404	-0.176	-1.12	-0.531
CACCCGCGAAGAAGCUAUAAGACAUGUACGUGCAUGGAUUGGCUUCGAUGUCGAGGGGUG	0.845	0.929	0.0562	-0.23
UAAAGUACUUAAUGAGAAGUGCUCUGCCUAUACAGUUGAACUCGGUACAGAAGUAAAUGAGUUCGCCUGUGUUGUGGCAGAUGCUGUCAUAAAAACUUUG [DMSMaPseq_invitro_SARS-CoV-2_Motif_52]	-0.501	-0.419	0.722	0.122
CAGUUGAAACAUCAAAUUCGUUUGAUGUACUG	-1.04	-0.685	-1.22	-0.516
UGGCCCCGAUUUCAGCUAUGGUUA [SHAPE_invitro_SARS-CoV-2_Motif_146]	-0.032	-0.129	0.341	-0.0487
GGCGUAAGUCUGAUACUUACCUG [U1snRNP5ss-10]	0.668	0.212	1.08	0.0886
CAUGUGUUGGUAGCGAUAAUGUUACUGACUUUAAUG	-0.995	-0.663	-1.01	-0.614
GGCUGUAGUUGUGAUCAACUCCGCGAACCCAUGCUUCAGUCAGCUGAUGCACAAUCGUUUUUAAACGGGUUUGCGGUGUAAGUGCAGCC [DMSMaPseq_invitro_SARS-CoV-2_Motif_241]	-0.133	-0.355	0.388	-0.0355
ACAUGCCAAUUUAGAUUCUUGCAAAAGAGUCUUGAACGUGGUGUGU	-1.48	-1.07	-1.62	-0.712
CUCUCAUCGAUCUCCAAGAACUUGGAAAGUAUGAGCAG [SHAPE_invitro_SARS-CoV-2_Motif_456]	-0.095	-0.197	0.281	-0.286
CCUGUGAACAGAUUGCUGACUCCCAGCAUCGGUCUCAUAGG [IAV_invivo_M1_M2_7_Motif_10+IAV_invivo_M1_M2_7_Motif_10]	-0.943	-0.767	-0.458	-0.605
CAAGGGUACACACCACUG	0.81	0.824	0.0749	-0.131
AAACCCGGUAAUUUUAACAAAGACUUCUAUGACUUUGCUGUGUCUAAGGGUUU [SHAPE_invivo_SARS-CoV-2_Motif_278]	-0.677	-0.52	-0.917	-0.338
GGUUUAUACCUUCCCAGGUAACAAACC	-0.928	-0.697	-1.05	-0.582
CACAAGGCAGAUGGGCUAUAUAAACGUUUUCGCUUUUCCGUUUACGAUAUAUAGUCUACUCUUGUG	-0.787	-0.81	-0.455	-0.5
UCUAUUAAAAUAUAAUGA [DMSMaPseq_invitro_SARS-CoV-2_Motif_395]	-0.185	-0.0176	-0.693	-0.157
CAGGUGACUUUGAUACUUACCUG [U1snRNP5ss-18]	-0.974	-0.734	-0.978	-0.615
GUACGAUCGAGUGUAC [DMSMaPseq_invitro_SARS-CoV-2_Motif_538]	0.105	0.143	0.0595	-0.222
UGGUGUUAGAAGGUCCUUUUAUGUCUAUGCUAAUGGAGGUAAAGGCUUUUGCAAACUA [SHAPE_invitro_SARS-CoV-2_Motif_149]	-0.58	-0.638	-0.562	-0.276
GUUCUCUAUGAGAAC	0.0284	0.38	-1.47	-0.504
CUCCUUUGAUGGUUGCAUACAUGUUGGAG [IAV_invivo_PB2_1_Motif_8+IAV_invivo_PB2_1_Motif_8]	-0.689	-0.359	-0.427	-0.208
GAAAUACUUGUCACAUACAAUUGUUGUGAUGAUGAUUAUUUC	-1.39	-1.15	-1.14	-0.399
GGCUGGAUCGAGUGAGCAAGCAGCAGAGGCC [IAV_invivo_M1_M2_7_Motif_14+IAV_invivo_M1_M2_7_Motif_14]	1.37	0.316	2.47	0.757

Sequence	pull-down binding Z-score (TO-N3 (biotin conjugate))	pull-down binding Z-score [1]	pull-down binding Z-score [2]	pull-down binding Z-score [3]
GGUGGCAAACCUUGUAUCAAAGUAGCCACU [SHAPE_invitro_SARS-CoV-2_Motif_216]	-0.798	-0.569	-0.605	-0.373
GAUUUGGCUACUAACAAUC [SHAPE_invitro_SARS-CoV-2_Motif_40]	0.624	0.705	-0.0811	0.126
CUCAGUCCAAGAUGGUAUUUCUACUACCUAGGAACUGGG [SHAPE_invivo_SARS-CoV-2_Motif_544]	-0.646	-0.642	-0.627	-0.217
UACCAGACUAUAACACAUAUAAAAAUACGUGUGAUGGUA [DMSMaPseq_invitro_SARS-CoV-2_Motif_221]	-1.03	-0.929	-1.24	-0.385
GGGAUUAUCCU	-0.927	-0.811	-0.985	-0.465
AACGGGGCGGGCCUCGGGCGGGGUAA [G4_2A2_VEGF-Pu22-mt3]	6.92	8.63	5.08	10.6
GGGAGAUAACAUUCC [IAV_invivo_M1_M2_7_Motif_7+IAV_invivo_M1_M2_7_Motif_7]	-0.16	-0.149	-0.107	-0.0296
UGGGAUUAUCCUA [DMSMaPseq_invitro_SARS-CoV-2_Motif_276]	-0.106	0.251	-0.609	-0.249
AUCUACAAUGAU [DMSMaPseq_invitro_SARS-CoV-2_Motif_243]	-0.892	-0.553	-1.55	-0.742
CCGAAUACCAUAAUGAAUCUGGCUUGAAAACCAUUCUUCGUAAGGGUGGUCGCACUAUUGCCUUUGG [DMSMaPseq_invitro_SARS-CoV-2_Multi_5_ComplexLevel_1]	-0.257	-0.576	0.178	-0.063
GCUGGUGCACUUGCCAGU [IAV_invivo_M1_M2_7_Motif_8+IAV_invivo_M1_M2_7_Motif_8]	-0.408	-0.522	-0.0123	-0.545
GUUAACUGGUUAUAAGAAACCUGCUUCAAGAGAGCUUAAAGUUAC	-0.0514	0.0276	-0.112	0.092
UCUUUCAUGGGA [DMSMaPseq_invitro_SARS-CoV-2_Motif_300]	0.363	0.66	-0.26	0.0379
GGGAGAGACGAACAGUCGAUUGCC [IAV_invivo_PB2_1_Motif_17+IAV_invivo_PB2_1_Motif_17]	0.0259	-0.434	0.839	-0.268
GCUGUGAGUUGGAUACUUACCUG [U1snRNP5ss-13]	0.947	0.0032	1.38	0.194
GGCAGUUUGUAUGUAAAUAAACAUGCAUUCC [SHAPE_invivo_SARS-CoV-2_Motif_362]	-0.216	0.0152	-0.727	-0.171
GCAGCCAAACUAAUGGUUGU	0.574	0.609	0.312	0.228
ACAAGAUGAUAAGAAAAUCAAAGCUUGU	-1.1	-0.879	-0.969	-0.459
GUUCUCUAAACGAAC	-0.364	-0.273	-1.16	-0.742
ACCACCAAUUAAAGAUUUUGGUGGU [SHAPE_invitro_SARS-CoV-2_Motif_434]	-0.123	0.206	-1.4	-0.49
GCUCACCGUGCCCAGUGAGC [IAV_invivo_M1_M2_7_Motif_5+IAV_invivo_M1_M2_7_Motif_5]	0.0761	0.297	-0.587	-0.154
